B1: Chromosomal passenger complex protein bir1 (Schizosaccharomyces pombe (strain ATCC 38366 / 972)), O14064 (parent)
chain: MKPITSSSKRRWNRFRREMCNYSKRLDTFQKKKWPRAKPTPETLATVGFYYNPISESNSEERLDNVTCYMCTKSFYDWEDDDDPLKEHITHSPSCPWAYILSSKNNPNQNPQAAALTKCREQTFVDKVWPYTNRPDYHCEPSVMAASGFVYNPTADAKDAAHCLYCDINLHDWEPDDDPYTEHKRRRADCVFFTWKDPNSLSPTKLSFLSTSNIDPEDLTEDNSILPVSPTRDSTKSHKTLNFSPSRKNNLNARPLTMSLYTNTSEEKDSQPTRAPQSPTKPVLLTAPRRKNKSPKKSKPAVFKPVKPIFSDEDEDDDDLTASQPFSKGICNDSMQVAKKNFTEEIPLKEDEKDNELEHLVSPATSVHTTVSDITGHQSVTDESDEQNNCMSTPPKIEIESKIEEEISVVSKSKEISSSVSSVGKEQNHTEKQVAIETPEQQKVEKEDEHLNLQGSFIEESTKQPISSKPSTSSPDMTDAATGGRVSSSSFRDKILQTNFSPRSTIDSFSNISKKRNSEEANDENDETNLKIPIPEKKRKFQEVLQSKNILVSSTEDSHEPVKVTEDSQTAIHVSKFEDLENKSMESEQSLQLLSESENDDKPLIDLIPLLAIKRKDNLVSGVLEKGKSTSTSKTKFDTSIVDFIEKPKTEISEVLPEEKRKAICDESQTVRVSIDRGVTKTRDVSSPVSDEKSENVNHEEANSGHTVMNVHSSLDPQPIVQPNELESGSYLKDLPDRNVGNSEKVTFQEDDINSPKLQSKNNQTVEAVNTETSDKLQEKEANHELENIEKIEEKLTEVDKVSLSDAFPDQEIKNSRTSVQNGTRSVSKNTPEKETKVDKIDNVSKKDVETSPGSCETSSAFAKTYAEKEVTSINLPSVRKPLDESYYDHSISPFDPLCQSSFLAPQTPVKSKHALPLVEANAPPWEPIDFSSLLESPVPNPVEPNKLSEKELDMTVEQWIKFMYAKCAKEFEEACEEKIEWLLEEGKRAEEYIQNL
partner: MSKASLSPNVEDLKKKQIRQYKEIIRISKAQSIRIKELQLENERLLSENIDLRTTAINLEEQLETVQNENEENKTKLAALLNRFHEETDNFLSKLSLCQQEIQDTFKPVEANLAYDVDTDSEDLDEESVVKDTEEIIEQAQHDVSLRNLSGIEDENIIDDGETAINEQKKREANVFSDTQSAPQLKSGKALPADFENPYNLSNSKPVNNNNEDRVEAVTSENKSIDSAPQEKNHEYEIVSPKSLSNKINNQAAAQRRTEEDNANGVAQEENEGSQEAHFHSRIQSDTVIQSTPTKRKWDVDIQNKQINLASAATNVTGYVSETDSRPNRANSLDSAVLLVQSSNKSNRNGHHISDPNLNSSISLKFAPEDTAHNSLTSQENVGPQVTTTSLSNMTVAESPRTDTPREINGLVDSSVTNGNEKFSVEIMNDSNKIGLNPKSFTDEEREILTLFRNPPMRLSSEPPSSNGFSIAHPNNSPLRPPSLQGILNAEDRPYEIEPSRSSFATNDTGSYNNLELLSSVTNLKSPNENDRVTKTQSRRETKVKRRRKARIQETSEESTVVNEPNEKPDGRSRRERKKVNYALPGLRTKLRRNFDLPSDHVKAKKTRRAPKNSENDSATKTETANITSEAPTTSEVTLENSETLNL
B2: Borealin (Homo sapiens), Q53HL2 (parent)
chain: MAPRKGSSRVAKTNSLRRRKLASFLKDFDREVEIRIKQIESDRQNLLKEVDNLYNIEILRLPKALREMNWLDYFALGGNKQALEEAATADLDITEINKLTAEAIQTPLKSAKTRKVIQVDEMIVEEEEEEENERKNLQTARVKRCPPSKKRTQSIQGKGKGKRSSRANTVTPAVGRLEVSMVKPTPGLTPRFDSRVFKTPGLRTPAAGERIYNISGNGSPLADSKEIFLTVPVGGGESLRLLASDLQRHSIAQLDPEALGNIKKLSNRLAQICSSIRTHK
partner: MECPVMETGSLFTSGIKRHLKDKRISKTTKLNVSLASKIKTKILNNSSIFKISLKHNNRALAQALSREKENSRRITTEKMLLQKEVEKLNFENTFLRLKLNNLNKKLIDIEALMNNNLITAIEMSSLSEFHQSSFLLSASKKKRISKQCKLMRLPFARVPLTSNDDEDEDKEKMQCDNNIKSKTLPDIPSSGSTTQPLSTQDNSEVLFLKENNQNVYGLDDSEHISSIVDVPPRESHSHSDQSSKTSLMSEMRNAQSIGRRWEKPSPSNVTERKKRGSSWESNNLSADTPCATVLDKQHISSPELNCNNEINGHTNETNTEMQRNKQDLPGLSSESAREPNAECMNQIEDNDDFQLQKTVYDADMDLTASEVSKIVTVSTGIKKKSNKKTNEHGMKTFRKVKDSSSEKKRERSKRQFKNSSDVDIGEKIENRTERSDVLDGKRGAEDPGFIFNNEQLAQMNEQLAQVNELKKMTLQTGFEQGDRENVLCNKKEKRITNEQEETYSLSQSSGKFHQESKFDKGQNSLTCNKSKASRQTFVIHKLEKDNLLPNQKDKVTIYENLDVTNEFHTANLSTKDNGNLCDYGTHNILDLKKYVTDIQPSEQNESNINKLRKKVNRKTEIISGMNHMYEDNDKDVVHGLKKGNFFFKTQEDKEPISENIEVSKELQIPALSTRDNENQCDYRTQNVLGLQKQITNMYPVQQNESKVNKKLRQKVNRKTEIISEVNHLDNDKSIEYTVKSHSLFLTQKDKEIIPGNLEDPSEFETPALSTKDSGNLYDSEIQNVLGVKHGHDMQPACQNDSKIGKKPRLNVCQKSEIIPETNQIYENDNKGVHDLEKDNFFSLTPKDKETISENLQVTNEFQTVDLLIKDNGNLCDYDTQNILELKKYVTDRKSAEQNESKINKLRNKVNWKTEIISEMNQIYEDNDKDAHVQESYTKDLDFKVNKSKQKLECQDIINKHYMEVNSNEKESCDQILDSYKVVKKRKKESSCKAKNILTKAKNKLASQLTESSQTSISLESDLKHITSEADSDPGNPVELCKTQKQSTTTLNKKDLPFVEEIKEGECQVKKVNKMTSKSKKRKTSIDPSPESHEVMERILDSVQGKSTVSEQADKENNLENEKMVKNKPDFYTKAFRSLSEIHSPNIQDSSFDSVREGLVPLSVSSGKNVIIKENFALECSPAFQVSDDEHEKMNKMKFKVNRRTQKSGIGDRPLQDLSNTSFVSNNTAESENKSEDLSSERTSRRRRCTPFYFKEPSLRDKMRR
B3: Borealin (Homo sapiens), Q53HL2 (parent)
chain: B2 chain

Variants of: B1
Conditions: with sgo2_schpo sgo2, O13734
In the case of S202A;S229A;S244A;S278A;S294A, the “effect of a mutation on the interaction” value is reported as “disrupting interaction”.

Variants of: B1
Conditions: with sgo2_schpo sgo2, O13734
Remark: another data set of the same source
In the case of S202A;S229A;S244A;S278A;S294A;T393A;T831A;T908A, the “effect of a mutation on the interaction” value is reported as “disrupting interaction”.

Variants of: B2
Conditions: with sgo2_human SGO2, Q562F6
In the case of T106A;T171A;T185A;T189A;T199A;T204A;S219A, the “effect of a mutation on the interaction” value is reported as “disrupting interaction strength”.

Variants of: B3
Conditions: with sgo1_human SGO1, Q5FBB7
sgo1_human SGO1, Q5FBB7, sequence (Q5FBB7 whole entry): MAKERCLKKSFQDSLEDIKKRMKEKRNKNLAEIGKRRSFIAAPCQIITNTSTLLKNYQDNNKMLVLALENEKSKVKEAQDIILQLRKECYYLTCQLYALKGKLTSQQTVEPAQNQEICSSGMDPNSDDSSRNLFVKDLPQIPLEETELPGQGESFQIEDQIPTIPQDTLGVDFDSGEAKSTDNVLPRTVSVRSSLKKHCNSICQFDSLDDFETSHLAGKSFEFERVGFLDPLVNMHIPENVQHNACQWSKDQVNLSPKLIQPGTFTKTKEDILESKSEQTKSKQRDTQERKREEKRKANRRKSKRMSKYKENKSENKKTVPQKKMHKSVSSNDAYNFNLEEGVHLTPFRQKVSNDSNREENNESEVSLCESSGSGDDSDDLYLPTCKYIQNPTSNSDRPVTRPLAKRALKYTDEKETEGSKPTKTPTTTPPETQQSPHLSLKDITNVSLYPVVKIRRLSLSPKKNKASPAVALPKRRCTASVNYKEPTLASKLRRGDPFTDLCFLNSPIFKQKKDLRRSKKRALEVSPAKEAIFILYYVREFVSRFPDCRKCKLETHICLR
For T106A;T171A;T185A;T189A;T199A;T204A;S219A, the “effect of a mutation on the interaction” value was “disrupting interaction strength”.

From IntAct's records for PubMed 20739936
